In one assay the target is T1, PD-L1-his (human, UniProt Q9NZQ7 19-238, limits assumed).
T1 construct: also called human PD-L1 protein
Briefly: BLI, Fortebio Octet RED96, antibody on AHC sensor, PD-L1-his in solution. A general note: Biolayer interferometry detects binding as a change in optical thickness at a sensor tip.

Assay [1] concerns the target T2, TIGIT-his (extracellular region of human TIGIT protein fused with his) (human, UniProt Q495A1 22-141).
T2 construct: also called antigen TIGIT-his
T2 sequence: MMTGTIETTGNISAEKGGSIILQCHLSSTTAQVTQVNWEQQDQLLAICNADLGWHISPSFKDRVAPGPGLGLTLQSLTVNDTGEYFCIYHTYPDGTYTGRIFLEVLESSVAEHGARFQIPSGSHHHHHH
Briefly: BLI, Fortebio Octet RED96, antibody on AHC sensor, TIGIT-his in solution.

Assay [2] has as its target T3, TIGIT-mFc (extracellular region of human TIGIT with mIgG1-Fc tag) (human).
T3 construct: A bought TIGIT-mFc (Acro Biosystems TIT-H5253) is used for immunization; also called recombinant humanized TIGIT-mFc
T3 chain: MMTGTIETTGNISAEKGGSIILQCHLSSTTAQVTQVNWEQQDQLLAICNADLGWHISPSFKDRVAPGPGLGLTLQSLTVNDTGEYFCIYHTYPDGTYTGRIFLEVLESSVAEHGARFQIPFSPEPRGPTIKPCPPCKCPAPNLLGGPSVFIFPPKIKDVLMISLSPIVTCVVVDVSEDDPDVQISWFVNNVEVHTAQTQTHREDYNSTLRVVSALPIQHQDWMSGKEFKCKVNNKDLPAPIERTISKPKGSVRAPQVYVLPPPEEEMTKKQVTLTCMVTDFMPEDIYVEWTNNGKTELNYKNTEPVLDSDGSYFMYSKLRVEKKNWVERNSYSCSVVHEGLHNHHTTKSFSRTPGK
Put plainly: FACS, blocking of TIGIT-mFc binding to cells (TIGIT/CD155; cells printed as hTIGIT-CHO-K1). Background: In flow cytometry, cells or beads pass a laser one at a time.

Assay [3] concerns the target T4, TIGIT on TIGIT/NFAT-reporter-Jurkat cells (UniProt Q495A1 22-244, limits assumed).
T4 sequence (looked up): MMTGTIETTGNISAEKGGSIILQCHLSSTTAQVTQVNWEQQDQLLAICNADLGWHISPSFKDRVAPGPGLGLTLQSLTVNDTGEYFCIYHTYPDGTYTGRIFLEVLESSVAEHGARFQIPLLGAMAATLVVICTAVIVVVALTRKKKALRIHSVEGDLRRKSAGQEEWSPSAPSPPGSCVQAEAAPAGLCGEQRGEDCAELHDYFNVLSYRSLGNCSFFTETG
Briefly: cell-based or functional assay.

Assay [4] deals with T5, full-length TIGIT on hTIGIT-CHO-K1 cells (human, UniProt Q495A1 22-244).
T5 construct: CHO-K1 cells stably transfected with pTargeT-TIGIT; also called TIGIT on cell surface
T5 sequence: T4 sequence (looked up)
Put plainly: FACS on hTIGIT-CHO-K1 cells.

The target in assay [5] is T3, TIGIT-mFc (extracellular region of …). Briefly: ELISA, blocking of TIGIT-mFc binding to coated CD155-hFc (competitor CD155-hFc). Background: ELISA stands for enzyme-linked immunosorbent assay.
For assay [6], the target named is T6, Human TIGIT-His protein (Sino Biological, 10917-H08H) (human, UniProt Q495A1 22-141).
T6 sequence (looked up): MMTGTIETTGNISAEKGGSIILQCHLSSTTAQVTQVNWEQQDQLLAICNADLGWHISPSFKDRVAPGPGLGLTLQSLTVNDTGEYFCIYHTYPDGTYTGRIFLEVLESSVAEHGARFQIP
Put plainly: ELISA, human TIGIT-His coated.

Assay [7] deals with T2, TIGIT-his (extracellular region of …). Briefly: BLI, Fortebio Octet RED96, SA sensor.

The results in this text go back to US20240262915A1 (NANJING SANHOME PHARMACEUTICAL, published 2024).

By Kd is commonly meant the equilibrium constant for the complex coming apart. High values mean a looser complex, low ones a tighter complex. As a reminder, the koff is a measure of how fast the partners let go of each other. A word on the kon: it is a measure of how fast the partners come together. As a reminder, the IC50 is the concentration that inhibits the measured activity by half. Read a high IC50 as weaker potency. In general, EC50 refers to the midpoint of the concentration-response curve. A lower EC50 goes with an effect from little substance.

T1 sequence (Q9NZQ7 19-238 limits assumed): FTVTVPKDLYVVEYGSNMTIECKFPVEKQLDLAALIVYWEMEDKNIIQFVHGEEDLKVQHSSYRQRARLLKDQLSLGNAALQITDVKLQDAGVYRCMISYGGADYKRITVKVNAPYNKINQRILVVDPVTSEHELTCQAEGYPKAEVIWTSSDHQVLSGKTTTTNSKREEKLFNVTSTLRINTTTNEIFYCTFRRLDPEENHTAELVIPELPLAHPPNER

B1: HuPL7-21 (antibody, IgG4, V domains shown)
VH: QVQLQESGPGLVKPSQTLSLTCTVSGDSITSGYWNWIRQHPGKGLEYIGYISYTGSTYYNLSLKSRVTISRDTSKNQFSLKLSSVTAADTAVYYCARYILWLRHFDYWGQGTLVTVSS
VL: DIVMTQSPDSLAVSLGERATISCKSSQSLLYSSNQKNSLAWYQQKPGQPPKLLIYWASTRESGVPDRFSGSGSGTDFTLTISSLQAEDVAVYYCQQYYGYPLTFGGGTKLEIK
notes: also called humanized anti-PD-L1 antibody HuPL7-21
In the assay with PD-L1-his, B1 returned a Kd of 1.49 nM, a koff of 0.000276 s⁻¹ and a kon of 185000 M⁻¹ s⁻¹.

B2: HuPL1642-T2353-ScFab (bispecific antibody, human IgG4 S228P, kappa)
chain 1: DIQMTQSPSSLSASVGDRVTITCRTSQDIGNSLRWFQQKPGKAPKLLIHGATNLANGVPSRFSGSGSGTDFTLTISSLQPEDFATYYCLQHNEYPLTFGCGTKLEIKRTVAAPSVFIFPPSDEQLKSGTASVVCLLNNFYPREAKVQWKVDNALQSGNSQESVTEQDSKDSTYSLSSTLTLSKADYEKHKVYACEVTHQGLSSPVTKSFNRGECGGGGSGGGGSGGGGSGGGGSGGGGSGGGGSGGGGSGGGGSEVQLVESGGGLVQPGGSLRLSCAASGFTFSDHWMSWVRQAPGKCMEWIGNIQYDGSYTNYAPSLKNRFTISRDNAKNSLYLQMNSLRAEDTATYYCTRGHFRITMASMGASASVYWGQGTMVTVSSASTKGPSVFPLAPCSRSTSESTAALGCLVKDYFPEPVTVSWNSGALTSGVHTFPAVLQSSGLYSLSSVVTVPSSSLGTKTYTCNVDHKPSNTKVDKRVESKYGPPCPPCPAPEFLGGPSVFLFPPKPKDTLMISRTPEVTCVVVDVSQEDPEVQFNWYVDGVEVHNAKTKPREEQFNSTYRVVSVLTVLHQDWLNGKEYKCKVSNKGLPSSIEKTISKAKGQPREPQVYTLPPCQEEMTKNQVSLWCLVKGFYPSDIAVEWESNGQPENNYKTTPPVLDSDGSFFLYSRLTVDKSRWQEGNVFSCSVMHEALHNHYTQKSLSLSLGK
chain 2: DIVMTQSPDSLAVSLGERVTMRCKSSQSLSWSENQNNYLSWYQQKPGQPPKLLIYGASIRESGVPDRFSGSGSGTDFTLTISSVQAEDVGVYYCQHNHGSFLPYTFGCGTKLEIKRTVAAPSVFIFPPSDEQLKSGTASVVCLLNNFYPREAKVQWKVDNALQSGNSQESVTEQDSKDSTYSLSSTLTLSKADYEKHKVYACEVTHQGLSSPVTKSFNRGECGGGGSGGGGSGGGGSGGGGSGGGGSGGGGSGGGGSGGGGSQVQLVQSGAEVAKPGASVKMSCKASGYTFTRNTMHWIKQAPGQCLEWIGFIDPHNTYTRYNQKFKDRATLTADTSASTAYMELSSLRSEDTAVYYCARWPMDYWGQGTLVTVSSASTKGPSVFPLAPCSRSTSESTAALGCLVKDYFPEPVTVSWNSGALTSGVHTFPAVLQSSGLYSLSSVVTVPSSSLGTKTYTCNVDHKPSNTKVDKRVESKYGPPCPPCPAPEFLGGPSVFLFPPKPKDTLMISRTPEVTCVVVDVSQEDPEVQFNWYVDGVEVHNAKTKPREEQFNSTYRVVSVLTVLHQDWLNGKEYKCKVSNKGLPSSIEKTISKAKGQPREPQVCTLPPSQEEMTKNQVSLSCAVKGFYPSDIAVEWESNGQPENNYKTTPPVLDSDGSFFLVSRLTVDKSRWQEGNVFSCSVMHEALHNHYTQKSLSLSLGK
In the assay with PD-L1-his, B2 yielded a Kd of 1.15 nM, a koff of 0.000212 s⁻¹ and an on-rate (kon) of 184000 M⁻¹ s⁻¹. In assay [1], binding was put at a Kd of 13.9 nM, the koff was found to be 0.00487 s⁻¹ and the kon is 350000 M⁻¹ s⁻¹. This molecule also had an IC50 in assay [2] of 1.51 nM.

B3: humanized antibody 22G2 (antibody, IgG4, V domains shown)
VH: QVQLQESGPGLVKPSETLSLTCTVSGGSVSSGIYYWSWIRQPPGKGLEWIGYIYYSGSTNYNPSLKSRVTISVDTSKNQFSLKLSSVTAADTAVYYCARDYYVSGNYYNVDYYFFGVDVWGQGTTVTVSS
VL: EIVLTQSPATLSLSPGERATLSCRASQSVSSYLAWYQQKPGQAPRLLIYDASNRATGIPARFSGSGSGTDFTLTISSLEPEDFAVYYCQQRSNWPPLFTFGPGTKVDIK
notes: Expressed from pHR-22G2-hG4 (IgG4 heavy chain) and pHR-22G2-hk (light chain); from US 2016/0176963A1; also called positive control antibody
On to B3, for which, in assay [3], the “EC50 (nM), luciferase expression induced by anti-TIGIT antibody” value was found to be 0.104 nM and the “Top (fold), luciferase expression induced by anti-TIGIT antibody” value was 1.59 fold. In assay [4], this molecule came in with an EC50 of 0.411 nM. Further, the concentration for half-maximal inhibition (IC50) in assay [5] amounted to 1.34 nM.

B4: HuPL16-42 (antibody, IgG4, V domains shown)
VH: QVQLVQSGAEVAKPGASVKMSCKASGYTFTRNTMHWIKQAPGQRLEWIGFIDPHNTYTRYNQKFKDRATLTADTSASTAYMELSSLRSEDTAVYYCARWPMDYWGQGTLVTVSS
VL: DIVMTQSPDSLAVSLGERVTMRCKSSQSLSWSENQNNYLSWYQQKPGQPPKLLIYGASIRESGVPDRFSGSGSGTDFTLTISSVQAEDVGVYYCQHNHGSFLPYTFGQGTKLEIK
notes: also called humanized anti-PD-L1 antibody HuPL16-42
In the assay with PD-L1-his, B4 yielded a Kd of 1.9 nM, a koff of 0.000225 s⁻¹ and a kon of 119000 M⁻¹ s⁻¹.

B5: SHS006-T-Hu17-31 (antibody, IgG4, V domains shown)
VH: QVTLKESGPVLVKPTETLTLTCTFSGFSLRTYGLGVGWIRQPPGKALEWLANIWWDDDEYYNPSLKNRLTISKDTSKSQAVLTMTNMDPVDTATYYCARIARPHYYWDGRYILDVWGQGTTVTVSS
VL: DIVMTQSPLSLPVTPGEPASISCRSSKSLLHSNGITYLSWYLQKPGQSPQLLIYQISNLASGVPDRFSGSGSGTDFTLKISRVEAEDVGVYYCMQFLEVPYTFGQGTKLEIK
notes: Humanized
Regarding B5, in assay [4], the midpoint of the response, the EC50, lay at 0.303 nM. The molecule also returned an EC50 in assay [6] of 1.59 nM. Further, in assay [7], binding was characterised by a dissociation constant (Kd) of 0.327 nM, the koff stood at 0.000239 s⁻¹ and the kon was determined as 731000 M⁻¹ s⁻¹. The same molecule gave an IC50 in assay [5] of 0.954 nM.

B6: SHS006-17CHI (antibody, V domains shown)
VH: QVTLKESGPGILQPSQTLSLTCTFSGFSLRTYGLGVGWIRQLSGKGLEWLANIWWDDDEYYNPSLKNRLTISKDTSNNQAFLKITNVDTADTATYYCARIARPHYYWDGRYILDVWGQGASVTVSS
VL: DIMMTQSPLSVAVTPGESASISCRSSKSLLHSNGITYLSWYLQRPEKSPQLLIFQISNLASGVSDRFSGSGSGTDFTLIISKVETEDVGIYYCMQFLEVPYTFGAGTKLELK
notes: Chimeric antibody with human heavy and light chain constant regions
With B6, the EC50 in assay [4] came out at 0.408 nM; in assay [6] it was 1.58 nM. For the same molecule, the half-inhibitory concentration (IC50) in assay [5] is 1.03 nM.

B7: SHS006-T-Hu23-53 (antibody, IgG4, V domains shown)
VH: EVQLVESGGGLVQPGGSLRLSCAASGFTFSDHWMSWVRQAPGKTMEWIGNIQYDGSYTNYAPSLKNRFTISRDNAKNSLYLQMNSLRAEDTATYYCTRGHFRITMASMGASASVYWGQGTMVTVSS
VL: DIQMTQSPSSLSASVGDRVTITCRTSQDIGNSLRWFQQKPGKAPKLLIHGATNLANGVPSRFSGSGSGTDFTLTISSLQPEDFATYYCLQHNEYPLTFGQGTKLEIK
notes: Humanized; also called SHS006-HuT23-53; HuT23-53
In the case of B7, the values for the EC50 in assay [4] and in assay [6] were 0.199 nM and 2.43 nM, respectively. Besides, the equilibrium dissociation constant (Kd) in assay [7] is 1.14 nM; in assay [1] it was 2.43 nM. Besides, the results for the koff in assay [7] and in assay [1] were 0.00151 s⁻¹ and 0.00192 s⁻¹, respectively. In addition, the kon is 1.33e+06 M⁻¹ s⁻¹ in assay [7] and 792000 M⁻¹ s⁻¹ in assay [1]. The IC50 in assay [5] was determined as 1.01 nM.

B8: SHS006-23 (antibody, V domains shown)
VH: EVQLVESEGGLVQPGASVKLSCVGSGFSFSDHWMSWVRQTPGKTMEWIGNIQYDGSYTNYAPSLKNRFTISRDNAKNTLYLQMTNLRSEDTATYYCTRGHFRITMASMGASASVYWGQGVMVTVSS
VL: DIQMTQSPSSLPTSLGDRVTITCRTSQDIGNSLRWFQQKPGKSPRLMIHGATNLANGVPSRFSGSRAGSDYSLTINSLESEDMAMYYCLQHNEYPLTFGSGTKLEIK
Take B8: in assay [3], the “EC50 (nM), luciferase expression induced by anti-TIGIT antibody” value was determined as 0.019 nM and the “Top (fold), luciferase expression induced by anti-TIGIT antibody” value turned out to be 1.62 fold.

B9: SHS006-23CHI (antibody, V domains shown)
VH: B8 VH
VL: B8 VL
notes: as for B6
With B9, the 50% effective concentration (EC50) in assay [4] amounted to 0.235 nM; in assay [6], 1.69 nM. Besides, in assay [5], the half-inhibitory concentration (IC50) came out at 1.04 nM.
